Source: patent US20140349340A1 (DSM SINOCHEM PHARMACEUTICALS NETHERLANDS B V, published 2014)

Key:
ComB_M1_A = ComB_M1_A (Streptomyces lavendulae); experiment: His-tag (TALON) co-purification after co-expression in E. coli, SDS-PAGE
Veg8_M1_ATE = Veg8_M1_ATE (uncultured soil bacterium); experiment: as above
Veg8_M1_A = Veg8_M1_A (uncultured soil bacterium); experiment: cell-based or functional assay
Tcp9_M1_AT = Tcp9_M1_AT (Actinoplanes teichomyceticus); experiment: cell-based or functional assay
Tcp9_M1_AT (Actinoplanes teichomyceticus), sequence (chain, as listed by the source limits assumed): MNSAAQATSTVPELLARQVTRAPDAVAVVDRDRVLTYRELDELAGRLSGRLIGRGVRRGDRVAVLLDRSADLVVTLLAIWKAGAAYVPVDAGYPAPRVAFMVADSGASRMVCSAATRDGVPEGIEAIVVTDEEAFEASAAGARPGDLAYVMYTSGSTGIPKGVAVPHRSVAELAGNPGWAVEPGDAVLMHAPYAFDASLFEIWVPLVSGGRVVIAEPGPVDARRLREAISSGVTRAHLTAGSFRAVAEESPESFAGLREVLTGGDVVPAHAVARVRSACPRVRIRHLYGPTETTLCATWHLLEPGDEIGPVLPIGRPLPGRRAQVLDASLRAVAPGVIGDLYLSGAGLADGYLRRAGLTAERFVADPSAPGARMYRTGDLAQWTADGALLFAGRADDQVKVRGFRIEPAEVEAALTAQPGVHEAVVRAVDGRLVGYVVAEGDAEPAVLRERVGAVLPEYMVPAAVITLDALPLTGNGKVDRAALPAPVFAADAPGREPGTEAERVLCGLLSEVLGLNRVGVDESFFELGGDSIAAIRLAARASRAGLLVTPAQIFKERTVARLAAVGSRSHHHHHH

Tcp11_M1_A = Tcp11_M1_A (Actinoplanes teichomyceticus); experiment: cell-based or functional assay
Tcp11_M1_A (Actinoplanes teichomyceticus), sequence (chain, as listed by the source): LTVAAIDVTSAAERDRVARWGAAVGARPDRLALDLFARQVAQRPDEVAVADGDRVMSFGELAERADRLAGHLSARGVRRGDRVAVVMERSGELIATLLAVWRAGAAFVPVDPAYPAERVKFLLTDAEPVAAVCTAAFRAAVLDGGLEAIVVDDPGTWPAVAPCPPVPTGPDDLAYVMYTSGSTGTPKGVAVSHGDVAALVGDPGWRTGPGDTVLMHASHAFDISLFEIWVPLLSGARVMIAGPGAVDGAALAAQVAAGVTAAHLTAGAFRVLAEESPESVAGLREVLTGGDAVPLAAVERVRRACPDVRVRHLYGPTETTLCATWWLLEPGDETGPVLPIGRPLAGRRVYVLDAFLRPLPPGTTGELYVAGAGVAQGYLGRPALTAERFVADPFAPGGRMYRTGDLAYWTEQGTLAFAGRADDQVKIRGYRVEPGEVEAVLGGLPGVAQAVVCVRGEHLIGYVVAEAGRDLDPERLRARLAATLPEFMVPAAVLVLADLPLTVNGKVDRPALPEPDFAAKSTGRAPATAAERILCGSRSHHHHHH

Veg8_M1_A (uncultured soil bacterium), sequence (chain, as listed by the source): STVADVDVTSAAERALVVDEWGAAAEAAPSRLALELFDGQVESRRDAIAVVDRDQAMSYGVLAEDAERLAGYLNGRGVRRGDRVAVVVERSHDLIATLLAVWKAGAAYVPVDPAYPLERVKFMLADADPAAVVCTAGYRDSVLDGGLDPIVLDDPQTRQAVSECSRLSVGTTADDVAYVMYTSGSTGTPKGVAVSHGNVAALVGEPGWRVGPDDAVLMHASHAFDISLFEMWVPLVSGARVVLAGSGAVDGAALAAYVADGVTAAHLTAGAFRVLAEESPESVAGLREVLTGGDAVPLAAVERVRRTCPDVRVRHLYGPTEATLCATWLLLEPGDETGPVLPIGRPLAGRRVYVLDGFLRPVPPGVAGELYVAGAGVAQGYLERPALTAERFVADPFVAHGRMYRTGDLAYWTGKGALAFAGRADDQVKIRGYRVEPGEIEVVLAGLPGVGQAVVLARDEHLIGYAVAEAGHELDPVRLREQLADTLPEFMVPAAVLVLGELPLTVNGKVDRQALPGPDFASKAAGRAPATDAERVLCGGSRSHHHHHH

Binder | binding result (ComB_M1_A) | binding result (Veg8_M1_ATE) | Formed PPi (PPi release assay), D-HPG 0.1 mM (Veg8_M1_A) [mM/min/mM enzyme] | Formed PPi (PPi release assay), D-HPG 1 mM (Veg8_M1_A) [mM/min/mM enzyme] | Formed PPi (PPi release assay), D-PG 1 mM (Veg8_M1_A) [mM/min/mM enzyme] | Formed PPi (PPi release assay), L-HPG 0.1 mM (Veg8_M1_A) [mM/min/mM enzyme] | Formed PPi (PPi release assay), L-HPG 1 mM (Veg8_M1_A) [mM/min/mM enzyme] | Formed PPi (PPi release assay), L-PG 1 mM (Veg8_M1_A) [mM/min/mM enzyme] | Formed PPi (PPi release assay), D-HPG 0.1 mM (Tcp9_M1_AT) [mM/min/mM enzyme] | Formed PPi (PPi release assay), D-HPG 1 mM (Tcp9_M1_AT) [mM/min/mM enzyme] | Formed PPi (PPi release assay), D-PG 1 mM (Tcp9_M1_AT) [mM/min/mM enzyme] | Formed PPi (PPi release assay), L-HPG 0.1 mM (Tcp9_M1_AT) [mM/min/mM enzyme] | Formed PPi (PPi release assay), L-HPG 1 mM (Tcp9_M1_AT) [mM/min/mM enzyme] | Formed PPi (PPi release assay), L-PG 1 mM (Tcp9_M1_AT) [mM/min/mM enzyme] | Formed PPi (PPi release assay), D-HPG 0.1 mM (Tcp11_M1_A) [mM/min/mM enzyme] | Formed PPi (PPi release assay), D-HPG 1 mM (Tcp11_M1_A) [mM/min/mM enzyme] | Formed PPi (PPi release assay), D-PG 1 mM (Tcp11_M1_A) [mM/min/mM enzyme] | Formed PPi (PPi release assay), L-HPG 0.1 mM (Tcp11_M1_A) [mM/min/mM enzyme] | Formed PPi (PPi release assay), L-HPG 1 mM (Tcp11_M1_A) [mM/min/mM enzyme] | Formed PPi (PPi release assay), L-PG 1 mM (Tcp11_M1_A) [mM/min/mM enzyme]
MbtH-like protein Tcp13 (other, Expressed from pACYCtac-Tcp13 in E. coli without a His-tag) MTNPFDNEDGSFLVLVNGEGQHSLWPAFAEVPDGWTGVHGPASRQDCLGYVEQNWTDLRPKSLISQISD | binds | binds | 0.14 | 0.92 | 0.01 | 0.56 | 0.59 | 0.17 | 2.07 | 5.28 | 0.05 | 1.18 | 1.16 | 1.32 | 0.08 | 0.66 | 0 | 0.8 | 1.03 | 0.17
MbtH-like protein Tcp17 (other, Expressed from pACYCtac-Tcp17 in E. coli without a His-tag) MTNPFDNEDGSFLVLVNGEGQHSLWPAFAEVPDGWTGVHGPASRQDCLGYVEQNWTDLRPRSLVEQADA | binds | binds | 0.17 | 1.03 | 0.02 | 0.7 | 0.64 | 0.14 | 1.71 | 4.63 | 0.05 | 1.2 | 1.34 | 1.44 | 0.11 | 0.63 | 0.04 | 0.95 | 1.04 | 0.23
MbtH-like protein VMbtH (other, Expressed from pACYCtac-VMbtH in E. coli without a His-tag) MTNPFDNEDGTFFVLVNDEGQHSLWPTFAEVPAGWTRVHGEATRQECLAYVEENWTDLRPKSLIQALGA | binds | binds | 0.18 | 1.39 | 0.02 | 0.61 | 0.61 | 0.2 | 3.72 | 8.44 | 0.07 | 1.23 | 1.4 | 2.32 | 0 | 0.86 | 0 | 1.38 | 1.54 | 0.09
